According to paper PMC2783425 (Biochemistry, 2009):
Blank lines part the entries; values can stand above or below the molecule they belong to.

How the values were obtained:
SufA (E. coli) = SufA (E. coli) (UniProt P77667); assay: SPR
SufC = biological target: T1, SufC (E. coli, UniProt P77499 1-248); assay: cross-linking
T1 sequence (looked up): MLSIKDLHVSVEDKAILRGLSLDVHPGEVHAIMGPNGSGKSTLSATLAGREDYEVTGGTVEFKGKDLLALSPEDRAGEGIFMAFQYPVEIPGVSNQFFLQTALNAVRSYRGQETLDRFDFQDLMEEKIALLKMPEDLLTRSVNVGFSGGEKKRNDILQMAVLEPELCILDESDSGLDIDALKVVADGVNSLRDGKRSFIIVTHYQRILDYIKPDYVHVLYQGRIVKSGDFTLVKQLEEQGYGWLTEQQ

SufB = biological target: T2, SufB (E. coli, UniProt P77522 1-495); assay: cross-linking
T2 sequence (looked up): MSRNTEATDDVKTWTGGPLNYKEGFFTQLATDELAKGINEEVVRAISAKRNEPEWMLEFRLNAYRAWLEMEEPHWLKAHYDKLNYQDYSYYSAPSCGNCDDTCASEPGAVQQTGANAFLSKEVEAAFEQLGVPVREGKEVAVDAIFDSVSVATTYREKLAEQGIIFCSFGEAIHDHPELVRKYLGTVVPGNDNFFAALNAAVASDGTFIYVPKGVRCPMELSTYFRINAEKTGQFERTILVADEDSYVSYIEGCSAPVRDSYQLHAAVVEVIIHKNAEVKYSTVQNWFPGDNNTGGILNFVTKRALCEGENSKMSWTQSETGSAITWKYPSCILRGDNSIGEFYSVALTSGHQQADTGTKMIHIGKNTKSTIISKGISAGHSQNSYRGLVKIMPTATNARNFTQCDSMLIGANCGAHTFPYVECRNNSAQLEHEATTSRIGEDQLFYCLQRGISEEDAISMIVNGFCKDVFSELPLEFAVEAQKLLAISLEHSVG

SEC = biological target: the molecule itself; assay: SEC
(His)6-SufS = biological target: T3, (His)6-SufS (E. coli, UniProt P77444 1-406); assay: SPR
T3 sequence (looked up): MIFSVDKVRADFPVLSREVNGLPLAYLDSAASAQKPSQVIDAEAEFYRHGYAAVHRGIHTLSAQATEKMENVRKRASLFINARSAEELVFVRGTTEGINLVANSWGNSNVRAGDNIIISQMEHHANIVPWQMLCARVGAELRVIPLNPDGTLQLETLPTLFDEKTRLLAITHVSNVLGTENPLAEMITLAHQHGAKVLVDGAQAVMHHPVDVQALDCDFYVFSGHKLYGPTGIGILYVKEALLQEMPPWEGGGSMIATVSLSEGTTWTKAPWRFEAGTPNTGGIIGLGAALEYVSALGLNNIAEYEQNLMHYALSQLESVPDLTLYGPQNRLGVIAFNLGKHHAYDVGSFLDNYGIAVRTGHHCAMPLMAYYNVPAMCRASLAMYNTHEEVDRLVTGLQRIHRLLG

Kd (SufA (E. coli)): 1400 nM
Molecule: (His)6-SufS (from UniProt P77444 1-406) (enzyme)

binding result (SufC): binds
binding result (SufB): binds
B1: SufA pre-labeled with Mts-Atf-Biotin (natural protein, E. coli, UniProt P77667 1-122, looked up)
chain: MDMHSGTFNPQDFAWQGLTLTPAAAIHIRELVAKQPGMVGVRLGVKQTGCAGFGYVLDSVSEPDKDDLLFEHDGAKLFVPLQAMPFIDGTEVDFVREGLNQIFKFHNPKAQNECGCGESFGV
modifications: Mts-Atf-biotin on cysteine residues (reducible disulfide bonds)

B2: SufA (natural protein, E. coli, UniProt P77667 1-122, looked up)
chain: MDMHSGTFNPQDFAWQGLTLTPAAAIHIRELVAKQPGMVGVRLGVKQTGCAGFGYVLDSVSEPDKDDLLFEHDGAKLFVPLQAMPFIDGTEVDFVREGLNQIFKFHNPKAQNECGCGESFGV
stoichiometry N (SEC): 2

Kd ((His)6-SufS): 1.1 nM
B3: SufE (natural protein, E. coli, UniProt P76194 1-138, looked up)
chain: MALLPDKEKLLRNFLRCANWEEKYLYIIELGQRLPELRDEDRSPQNSIQGCQSQVWIVMRQNAQGIIELQGDSDAAIVKGLIAVVFILYDQMTPQDIVNFDVRPWFEKMALTQHLTPSRSQGLEAMIRAIRAKAAALS
